Experimental data from patent US9458220B2 (priority 2010, dated 2016).
Like-named read-outs stand apart in the source and are kept apart here. Primed or numbered codes have the meaning given here. Where no end group is shown, it is not given here. [ ]: non-standard residue; d: D form. PEG8′ = non-peptide PEG linker of 8 ethylene glycol units

Columns and labels:
IR-A = IR-A (Homo sapiens, UniProt P06213); assay: In vitro activity at IR-A relative to native insulin; type: cell-based
IR-B = IR-B (Homo sapiens, UniProt P06213); assay: In vitro activity at IR-B relative to native insulin; type: cell-based; conditions: for % Insulin Activity IR-B: Table 17
IGF-1 R = IGF-1 R (Homo sapiens, UniProt P08069); assay: In vitro activity at IGF-1 R relative to native insulin; type: cell-based; conditions: for % Insulin Activity IGF-1 R: Table 17
mice = assay: Comparative insulin tolerance test in mice; type: in vivo; conditions: result in words
Procedure: The activity of the compounds in vivo was also tested by administering the compounds to mice. Food was removed four hours prior to administering peptide to normal mice and withheld for the duration of the study. Glucose was measured just prior to administration of test compounds and at 1, 2, 3, 6 and 8, 12, 16, 20 and 24 hours after administration. […] FIGS. 29B and 29C provide data on blood glucose concentrations over 8 hours after administration of the listed analogs.
The compounds were tested at two different concentrations (27 nmol/kg and 90nmol/kg).
This single chain analog comprises a 20 kDa PEG linked to the side chain of the single lysine residue in the linking moiety (PEG8-K-PEG4) that joins the A chain and the B chain. […] FIGS. 33C and 33D show the blood glucose AUC24 hrs in mice administered Detemir and MIU-56, respectively.

human insulin receptor = target: T1, human insulin receptor (Homo sapiens, UniProt P06213); assay: Insulin receptor competition binding assay (scintillation proximity); conditions: Table 8
T1 construct: expressed in transfected cells; plasma membrane fragments

Molecule: B1, A14-10K B^1(H5, 10Y16L17R29)29: A^1(H8K14N18, 21) (chain 1 GPEHLCGAHLVDALYLVCGDRGFYFNKR; chain 2 GIVDECCHRSCDLKRLENYCN) [di-10K-TC]
- IR-A (IR-A; Table 19): 6.4%
- IR-B (IR-B; Table 19): 2.1%

Molecule: B^1(H5, 10Y16L17K29)29: A^1(H8, N18, 21) [DP3(TC)]
- IR-A (IR-A; Table 19): 159.8%
- IR-B (IR-B; Table 19): 33.1%

Molecule: B^1(H5, 10Y16L17K29)29-A^1(H8, N18, 21) [DP3(SC)]
- IR-A (IR-A; Table 19): 0.03%

Molecule: B^1(H5, 10Y16L17A24)25-C^1-A^1(H8N18, N21) [Ala, B24]
- IR-A (IR-A): 0.1%
- IR-B (IR-B): 0.4%
- IGF-1 R (IGF-1 R): 0.3%

Molecule: B^1(H5, 10Y16L17R29)30-C^1des9-12-A^1(H8, K14, N18, 21) (GPEHLCGAHLVDALYLVCGDRGFYFNKRTGYGSSSRRGIVDECCHRSCDLKRLENYCN) [DP8Mut3KA14]
- IR-A (IR-A; Table 19): 132.2%
- IR-B (IR-B; Table 19): 12.6%

Molecule: B^1(H5, 10Y16L17R29)30-C^1des9-12-A^1(H8, N18, 21) (GPEHLCGAHLVDALYLVCGDRGFYFNKRTGYGSSSRRGIVDECCHRSCDLRRLENYCN) [MIU-43]
- IR-A (IR-A; Table 19): 97.5%
- IR-B (IR-B; Table 19): 16.7%
- IGF-1 R (IGF-1 R; Table 19): 14.2%

Molecule: C8-PEG20K B^1(H5, Y16, L17)25-PEG8-K-PEG4-A^1(N18, N21) (GPEHLCGAELVDALYLVCGDRGFY[PEG8′]KGIVDECCFRSCDLRRLENYCN; not fully specified (some residues, bridges); ends and bridges not checked) [MIU-56]
- ability to reduce and sustain low blood glucose (mice): sustained duration of action for 24 hours

Molecule: B^1(H5,H10,Y16,L17,C16rE-K22)25a: A^1(N18,N21) [MIU-37]
- ability to reduce and sustain low blood glucose (mice): more basal and sustained lowered glucose levels relative to native insulin

Molecule: B^1(H5,Y16,L17)25-C^1(K8)-A^1(N18,21) (GPEHLCGAELVDALYLVCGDRGFYGYGSSSRKAPQTGIVDECCFRSCDLRRLENYCN) [MIU-67, two 10K PEG chains, at the N-terminus and at position C8]
- % Insulin Activity IR-B (IR-B): 0.1%
- ability to reduce and sustain low blood glucose (mice): roughly equivalent to MIU-59 administered at 40 nmol/kg
- % Insulin Activity IGF-1 R (IGF-1 R): <0.1%

Molecule: B^1(C16-K0,H5,H10,Y16,L17)25a: A^1(N18,N21) [MIU-36]
- ability to reduce and sustain low blood glucose (mice): more basal and sustained lowered glucose levels relative to native insulin

Molecule: GE5W-B^1(A5H10Y16L17)25-C^1-A^1(H8N18N21) [GE5W-Ala, B5]
- IR-A (IR-A; Table 18): 8.6%
- IR-B (IR-B; Table 18): 2.3%
- IGF-1 R (IGF-1 R; Table 18): 0.3%

Molecule: B^1(H5,Y16,L17)25-C^1(K8)-A^1(K14, N18,21) (GPEHLCGAELVDALYLVCGDRGFYGYGSSSRKAPQTGIVDECCFRSCDLKRLENYCN) [MIU-69, two 10K PEG chains, at the N-terminus and at amino acid A14]
- % Insulin Activity IGF-1 R (IGF-1 R): <0.1%

Molecule: B1, A14-10K B^1(H5, 10Y16L17R29)30-C^1des9-12-A^1(H8, K14, N18, 21) (GPEHLCGAHLVDALYLVCGDRGFYFNKRTGYGSSSRRGIVDECCHRSCDLKRLENYCN) [MIU-79]
- IR-A (IR-A; Table 19): 1.7%
- IR-B (IR-B; Table 19): 0.2%

Molecule: CC[C@H](C)[C@H](NC(=O)CNC(=O)[C@@H]1CCCN1C(=O)[C@H](C)N)C(=O)N[C@H](C(=O)N[C@@H](CC(=O)O)C(=O)N[C@@H](CCC(=O)O)C(=O)N[C@H]1CSSC[C@@H]2NC(=O)[C@H](CO)NC(=O)[C@H](CCCNC(=N)N)NC(=O)[C@H](Cc3ccccc3)NC(=O)[C@H](CSSC[C@H](NC(=O)[C@H](CC(C)C)NC(=O)[C@@H](NC(=O)[C@H](CCC(=O)O)NC(=O)[C@@H]3CCCN3C(=O)CN)[C@@H](C)O)C(=O)NCC(=O)N[C@@H](C)C(=O)N[C@@H](CCC(=O)O)C(=O)N[C@@H](CC(C)C)C(=O)N[C@@H](C(C)C)C(=O)N[C@@H](CC(=O)O)C(=O)N[C@@H](C)C(=O)N[C@@H](CC(C)C)C(=O)N[C@@H](Cc3ccc(O)cc3)C(=O)N[C@@H](CC(C)C)C(=O)N[C@@H](C(C)C)C(=O)N[C@H](C(=O)NCC(=O)N[C@@H](CC(=O)O)C(=O)N[C@@H](CCCNC(=N)N)C(=O)NCC(=O)N[C@@H](Cc3ccccc3)C(=O)N[C@@H](Cc3ccc(O)cc3)C(=O)N[C@@H](Cc3ccccc3)C(=O)N[C@@H](CC(N)=O)C(=O)N[C@@H](CCCCN)C(=O)N3CCC[C@H]3C(=O)N[C@H](C(N)=O)[C@@H](C)O)CSSC[C@@H](C(=O)N[C@@H](C)C(N)=O)NC(=O)[C@H](Cc3ccc(O)cc3)NC(=O)[C@H](CCSC)NC(=O)[C@H](CCC(=O)O)NC(=O)[C@H](CC(C)C)NC(=O)[C@H](CCCNC(=N)N)NC(=O)[C@H](CCCNC(=N)N)NC(=O)[C@H](CC(C)C)NC(=O)[C@H](CC(=O)O)NC2=O)NC1=O)C(C)C [IGF1(Y^B16L^B17)(AlaPro)^A-1, 0]
- % of Insulin Activity (human insulin receptor): 37.12%

Molecule: B^1(A5H10Y16L17)25-C^1-A^1(H8N18N21) [Ala, B5]
- IR-B (IR-B; Table 18): 5.7%
- IGF-1 R (IGF-1 R; Table 18): 2.5%

Molecule: B1-20K B^1(H5, 10Y16L17K29)29-A^1(H8N18, 21) [MIU-77]
- IR-A (IR-A): 0.1%
- activity at the insulin type-A receptor on addition of a 20 kDa PEG (IR-A): ~100 fold

Molecule: B^1(H5, 10Y16L17)25-C^1-A^1(T8N18, 21) (GPEHLCGAHLVDALYLVCGDRGFYGYGSSSRRAPQTGIVDECCTRSCDLRRLENYCN) [Thr, A8]
- IR-A (IR-A; Table 18): 20.4%
- IR-B (IR-B; Table 18): 8.4%
- IGF-1 R (IGF-1 R; Table 18): 3.7%

Molecule: B^1(H5,H10,Y16,L17)25a: A^1(H8,rEC16-K14,N18,N21) [MIU-41]
- ability to reduce and sustain low blood glucose (mice): more basal and sustained lowered glucose levels relative to native insulin

Molecule: B^1(H5,Y16,L17, K22)25-C^1(K8)-A^1(N18,21) (GPEHLCGAELVDALYLVCGDKGFYGYGSSSRKAPQTGIVDECCFRSCDLRRLENYCN) [MIU-68, two 10K PEG chains, at the N-terminus and at amino acid B22]
- % Insulin Activity IR-B (IR-B): 0.1%
- % Insulin Activity IGF-1 R (IGF-1 R): <0.1%

Molecule: B^1(H5,H10,Y16,L17)25-C^1-A^1(H8,N18,N21) (GPEHLCGAHLVDALYLVCGDRGFYGYGSSSRRAPQTGIVDECCHRSCDLRRLENYCN) [MIU-35]
- IR-A (IR-A; Table 18): 61.4%
- IR-B (IR-B; Table 18): 17.4%
- % Insulin Activity IGF-1 R (IGF-1 R): 3.2%
- IGF-1 R (IGF-1 R; Table 18): 3.2%

Molecule: B1-20K B^1(H5, 10Y16L17K29)29: A^1(H8N18, 21) [MIU-78]
- IR-A (IR-A): 8.2%
- IR-B (IR-B): 3.2%

B1: GE5W-B^1(H5, 10Y16L17)25-C^1-A^1(A1H8N18, 21) (peptide)
chain: GEEEEEWGPEHLCGAHLVDALYLVCGDRGFYGYGSSSRRAPQTAIVDECCHRSCDLRRLENYCN
- IR-A (IR-A; Table 18): 2.1%
- IR-B (IR-B; Table 18): 0.7%
- IGF-1 R (IGF-1 R; Table 18): 0.5%
